1 molecule from patent US20210179717A1 (ALBERT LUDWIGS UNIVERSIT T FREIBURG, published 2021) can be followed below.

Assay [1] deals with T1, scrambled peptide sM7 (KLSLEKQTK).
T1 construct: Scrambled control of M7
T1 peptide: KLSLEKQTK
Description: solid phase binding (ELISA) with immobilized peptides.
Description: (§1) Specific binding was calculated by subtraction of binding of mouse IgG to the peptides.

Another assay deals with T2, peptide M8 (EEFRIHFT) (human).
T2 peptide: EEFRIHFT
The description is as above.

The next assay concerns the target T3, peptide M7 (EQLKKSKTL) (human).
T3 construct: Immobilised peptide from the human Mac-1 αM I-domain
T3 peptide: EQLKKSKTL
In words: solid phase binding assay, immobilized peptide M7.

Assay [2] has as its target human Mac-1 (αMβ2, CD11b/CD18), native, non-activated (WT) (human, UniProt P11215 17-1152; P05107 23-769). In words: western blot of CHO cells over-expressing Mac-1.

Description for peptide M8 (EEFRIHFT): as §1

B1: anti-M7 (mouse monoclonal antibody, clone RC3, mouse IgG2bκ) (antibody, V domains shown)
VH: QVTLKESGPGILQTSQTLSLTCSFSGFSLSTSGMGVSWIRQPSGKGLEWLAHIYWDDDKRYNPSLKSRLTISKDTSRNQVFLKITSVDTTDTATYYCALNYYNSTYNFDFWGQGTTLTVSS
VL: DIQMTQSPSSLSASLGERVSLTCRASQEISGYLSWHQQKPDGTIKRLLYSTSTLDSGVPKRFSGSRSGSDYSLTISSLESEDFADYYCLQYAISPPTFGGGTKLEIK
notes: Coupled to Alexa Fluor 647 for flow cytometry; also called anti-M7-Alexa 647
Turning to B1, the binding result in assay [1] is on record as “no binding”; in the assay with peptide M8 (EEFRIHFT) it was “no binding”; with peptide M7 (EQLKKSKTL), “binds”; in assay [2] it was “binds”.
